Experiments:
[1] = biological target: T1, cellular p110α-p85 interaction (Homo sapiens, UniProt P42336, E545K); experiment: Co-IP from treated cells, cellular p110α-p85 interaction; format: cell-based
T1 construct: tag the endogenous WT or mutant p110α with 3×FLAG at their C termini in DLD1 cells; endogenous in cells; host or cells: DLD1 p110α E545K 3×FLAG knock-in cells
Experimental: (§1) FIG. 4(A-F) illustrate: (A) Schematic diagram of linear and stapled WT and mutant peptides derived from p110α (SEQ ID NOs: 5, 6, 7 and 8). (B) Immunoblots of cell lysates immunoprecipitated with beads conjugated with anti-FLAG antibodies and then blotted with the indicated antibodies. Linear or stapled WT and mutant peptide were added into culture medium of the p110α E545K 3×FLAG KI cells for 16 hr. (C) Immunoblots of cell lysates immunoprecipitated with anti-p110α antibodies and then blotted with the indicated antibodies. Vaco481 CRC cells were treated with the stapled mutant peptides at the indicated concentration. (D) Immunoblots of cell lysates blotted with the indicated antibodies. The indicated cell lines were treated with the stapled mutant peptide. (E) Immunoblots of cell lysates blotted with the indicated antibodies. […]
(§2) For Co-immunoprecipitation (Co-IP), cells were harvested, washed with PBS, and then lysed in IP buffer (50 mMTris [pH 7.4], 150 mMNaCl, 5 mMEDTA [pH 8.0], 0.5% NP40, 1 mM PMSF, complete Protease Inhibitor Cocktail tablet [Roche]; supplemented with phosphatase inhibitors [1 mM Na3VO4, 20 mM NaF, 0.1 mM b-glycerophosphate, 20 mM sodium pyrophosphate] when necessary). […] Lysates were then cleared by centrifugation (14,000 rpm, 10 min) and protein concentration in supernatants was determined with a BCA protein assay kit (Pierce, Rockford, Ill.). […]

p110α = experiment: Immunoblot of treated cell lines, p110α protein level; format: cell-based, human
Experimental: as §1, §2

[2] = biological target: T2, recombinant p110α E545K mutant protein (Homo sapiens, UniProt P42336, E545K); experiment: In vitro lipid kinase assay; format: biochemical; conditions: either alone or in the presence of IRS1
T2 construct: 6×His; made in house; host or cells: Sf9 insect cells (baculovirus)
Experimental: FIGS. 3(A-M) illustrate: (A, B) Mapping peptides (P3, SEQ ID NO: 1; P4 SEQ ID NO: 2; P5, SEQ ID NO: 3; P6, SEQ ID NO: 4) derived from mutant p110α that inhibit interaction between IRS1 and p110α E545K. The indicated peptides were added into cell lysates made from the p110α E545K 3×FLAG KI cells. Cell lysates were immunoprecipitated with beads conjugated with anti-FLAG antibodies and then blotted with anti-IRS1 antibodies. (C) Immunoblots of cell lysates made from the p110α E545K 3×FLAG KI cells. Cell lysates were immunoprecipitated with beads conjugated with anti-FLAG antibodies and then blotted with the indicated antibodies. (D) Immunoblots of cell lysate of Myc-tagged IRS1 plasmid, which co-transfected an ABD domain deletion construct of the FLAG-tagged p110α E545K mutant (ΔABD), incubated with the indicated amount of stapled p110α mutant peptides, and then immunoprecipitated with anti-FLAG antibodies and blotted with the indicated antibodies. (J, K) Immunoblot and graph of purified recombinant p110α E545K mutant proteins mixed with the indicated components and quantified using an in vitro lipid kinase assay. (L, M) Immunoblots of the indicated cell lines serum-starved, stimulated with 1 μg/ml insulin for 30 min, and then treated with or without the indicated peptides. Cell lysates were blotted with the indicated antibodies. All error bars show mean±SEM. *p<0.05, **p<0.001, t test. […]

T1 sequence (P42336 whole entry E545K): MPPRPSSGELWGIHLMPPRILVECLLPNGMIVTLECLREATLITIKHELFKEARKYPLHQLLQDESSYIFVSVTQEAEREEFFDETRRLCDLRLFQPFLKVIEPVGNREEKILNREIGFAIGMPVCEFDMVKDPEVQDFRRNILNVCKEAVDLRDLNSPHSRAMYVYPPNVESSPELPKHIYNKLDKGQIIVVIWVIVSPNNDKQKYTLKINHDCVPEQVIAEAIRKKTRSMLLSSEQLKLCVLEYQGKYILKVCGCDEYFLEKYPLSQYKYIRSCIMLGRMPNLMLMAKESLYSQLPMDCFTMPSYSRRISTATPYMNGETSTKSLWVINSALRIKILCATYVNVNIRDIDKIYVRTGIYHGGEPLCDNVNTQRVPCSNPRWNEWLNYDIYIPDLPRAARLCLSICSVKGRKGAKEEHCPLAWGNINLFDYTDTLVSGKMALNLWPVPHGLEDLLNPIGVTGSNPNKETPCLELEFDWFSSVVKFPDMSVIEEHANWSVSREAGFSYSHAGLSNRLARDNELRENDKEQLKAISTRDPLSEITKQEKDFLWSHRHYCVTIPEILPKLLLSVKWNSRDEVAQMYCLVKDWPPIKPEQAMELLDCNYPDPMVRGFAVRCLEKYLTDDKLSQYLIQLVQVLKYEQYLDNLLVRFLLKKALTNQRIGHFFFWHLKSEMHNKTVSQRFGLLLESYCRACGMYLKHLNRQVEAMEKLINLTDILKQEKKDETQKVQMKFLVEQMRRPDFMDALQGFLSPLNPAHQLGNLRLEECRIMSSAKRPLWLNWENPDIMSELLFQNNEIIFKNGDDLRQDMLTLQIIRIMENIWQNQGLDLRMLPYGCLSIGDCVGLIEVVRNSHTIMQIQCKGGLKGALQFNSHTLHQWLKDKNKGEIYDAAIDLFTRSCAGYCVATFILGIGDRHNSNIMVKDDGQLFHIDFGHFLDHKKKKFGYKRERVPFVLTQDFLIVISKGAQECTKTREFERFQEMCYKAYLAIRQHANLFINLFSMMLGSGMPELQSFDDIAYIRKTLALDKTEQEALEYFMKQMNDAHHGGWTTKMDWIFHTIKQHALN
T1 sequence (P27986 whole entry partner): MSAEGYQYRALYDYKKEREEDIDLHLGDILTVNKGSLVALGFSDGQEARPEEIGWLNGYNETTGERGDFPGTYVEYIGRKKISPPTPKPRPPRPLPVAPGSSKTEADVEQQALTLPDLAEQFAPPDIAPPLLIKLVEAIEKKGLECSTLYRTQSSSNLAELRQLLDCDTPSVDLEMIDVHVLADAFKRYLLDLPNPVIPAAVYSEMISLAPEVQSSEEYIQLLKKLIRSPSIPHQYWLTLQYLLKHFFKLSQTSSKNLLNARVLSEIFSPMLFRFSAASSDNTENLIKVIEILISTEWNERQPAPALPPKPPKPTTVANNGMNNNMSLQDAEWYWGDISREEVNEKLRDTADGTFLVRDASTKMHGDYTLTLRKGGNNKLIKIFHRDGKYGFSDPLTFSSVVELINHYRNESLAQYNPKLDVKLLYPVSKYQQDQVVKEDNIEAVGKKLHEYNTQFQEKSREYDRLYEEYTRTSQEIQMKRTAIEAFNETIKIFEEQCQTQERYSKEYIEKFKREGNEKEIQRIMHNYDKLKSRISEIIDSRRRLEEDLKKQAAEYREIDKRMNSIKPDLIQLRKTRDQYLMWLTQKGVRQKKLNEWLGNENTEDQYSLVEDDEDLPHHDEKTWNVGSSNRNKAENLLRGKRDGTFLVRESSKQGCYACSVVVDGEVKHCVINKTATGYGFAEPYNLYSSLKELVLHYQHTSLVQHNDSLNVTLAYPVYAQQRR
T2 sequence (P42336 whole entry E545K): as the sequence (P42336 whole entry E545K) above
T2 sequence (P27986 322-600 partner limits assumed): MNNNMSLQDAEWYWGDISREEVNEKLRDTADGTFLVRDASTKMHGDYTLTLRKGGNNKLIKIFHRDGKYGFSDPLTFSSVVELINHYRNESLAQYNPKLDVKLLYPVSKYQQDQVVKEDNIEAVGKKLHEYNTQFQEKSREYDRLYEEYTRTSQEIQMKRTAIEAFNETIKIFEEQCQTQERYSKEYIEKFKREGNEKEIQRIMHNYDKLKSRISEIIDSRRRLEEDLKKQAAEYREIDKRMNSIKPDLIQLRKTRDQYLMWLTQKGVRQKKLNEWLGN

H2N-SEITKQEK-D^549-FLW-S^553-HRHYC-COOH [stapled mutant peptide]
cellular p110α-p85 interaction [1]: did not interfere
protein levels of p110α (p110α): slightly reduce
kinase activity of recombinant p110α [2]: no effect

From patent US20140005119A1, “COMPOSITIONS AND METHODS FOR INHIBITING THE ACTIVITY OF P110a MUTANT PROTEINS” (Case Western Reserve University, priority 2012, published 2014)
